The labels stand for the following.
T1: wild-type human envoplakin plakin repeat domain (PRD), residues Asp1822-Ala2014 (human, UniProt Q92817 1822-2014)
T1 construct: envoplakin, human, plakin repeat domain, residues Asp1822-Ala2014; vector pProEX-HTC; also called envoplakin PRD; WT; source: E. coli BL21(DE3), purified (HisTrap, TEV cleavage, S75 size exclusion)
T1 sequence (looked up): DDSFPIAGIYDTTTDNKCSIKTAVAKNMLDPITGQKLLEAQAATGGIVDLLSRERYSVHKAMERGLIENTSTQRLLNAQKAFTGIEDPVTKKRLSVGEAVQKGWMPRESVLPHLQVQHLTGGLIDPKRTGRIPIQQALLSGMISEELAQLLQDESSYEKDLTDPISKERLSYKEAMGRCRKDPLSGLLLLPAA

T2: envoplakin PRD K2002E (control mutation) (human, UniProt Q92817 1822-2014, K2002E)
T2 construct: envoplakin, human, plakin repeat domain, residues Asp1822-Ala2014, mutant K2002E; 15N-labelled for NMR; source: E. coli BL21(DE3), purified (HisTrap, TEV cleavage, S75 size exclusion)
T2 sequence (looked up): T1 sequence (looked up) with K181E

B1: vimentin^ROD D112K (domain or fragment)
chain: not shown
notes: vimentin, human, rod residues 99-249, mutant D112K
B2: vimentin^ROD double mutant D112K/D119K (domain or fragment)
chain: not shown
notes: vimentin, human, rod residues 99-249, double mutant D112K/D119K
B3: vimentin^ROD construct, vimentin residues 99-249 (coils 1A and 1B of the central rod domain) (domain or fragment)
chain: not shown
notes: vimentin, human, rod residues 99-249, coils 1A and 1B; Vector pET21a+; His tag retained for SPR; also called WT; envoplakin^ROD (as printed once in the text)
B4: vimentin^ROD D119K (domain or fragment)
chain: not shown
notes: vimentin, human, rod residues 99-249, mutant D119K
B5: envoplakin PRD R1895E (domain or fragment, human, UniProt Q92817 1822-2014, looked up)
chain: T1 sequence (looked up) with R74E
notes: envoplakin, human, plakin repeat domain, residues Asp1822-Ala2014, mutant R1895E; 15N-labelled for NMR; source: E. coli BL21(DE3), purified (HisTrap, TEV cleavage, S75 size exclusion)
B6: envoplakin PRD R1914E (domain or fragment, human, UniProt Q92817 1822-2014, looked up)
chain: T1 sequence (looked up) with R93E
notes: envoplakin, human, plakin repeat domain, residues Asp1822-Ala2014, mutant R1914E; 15N-labelled for NMR; also called K1914E (as printed once in the text); source: E. coli BL21(DE3), purified (HisTrap, TEV cleavage, S75 size exclusion)
B7: envoplakin PRD K1901E (domain or fragment, human, UniProt Q92817 1822-2014, looked up)
chain: T1 sequence (looked up) with K80E
notes: envoplakin, human, plakin repeat domain, residues Asp1822-Ala2014, mutant K1901E; 15N-labelled for NMR; source: E. coli BL21(DE3), purified (HisTrap, TEV cleavage, S75 size exclusion)
B8: envoplakin PRD K1988E (control mutation) (domain or fragment, human, UniProt Q92817 1822-2014, looked up)
chain: T1 sequence (looked up) with K167E
notes: envoplakin, human, plakin repeat domain, residues Asp1822-Ala2014, mutant K1988E; 15N-labelled for NMR; source: E. coli BL21(DE3), purified (HisTrap, TEV cleavage, S75 size exclusion)
B9: envoplakin PRD R1952A (domain or fragment, human, UniProt Q92817 1822-2014, looked up)
chain: T1 sequence (looked up) with R131A
notes: envoplakin, human, plakin repeat domain, residues Asp1822-Ala2014, mutant R1952A; 15N-labelled for NMR; source: E. coli BL21(DE3), purified (HisTrap, TEV cleavage, S75 size exclusion)
B10: envoplakin PRD K1994E (domain or fragment, human, UniProt Q92817 1822-2014, looked up)
chain: T1 sequence (looked up) with K173E
notes: envoplakin, human, plakin repeat domain, residues Asp1822-Ala2014, mutant K1994E; 15N-labelled for NMR; source: E. coli BL21(DE3), purified (HisTrap, TEV cleavage, S75 size exclusion)
B11: envoplakin PRD K1847E (control mutation) (domain or fragment, human, UniProt Q92817 1822-2014, looked up)
chain: T1 sequence (looked up) with K26E
notes: envoplakin, human, plakin repeat domain, residues Asp1822-Ala2014, mutant K1847E; 15N-labelled for NMR; source: E. coli BL21(DE3), purified (HisTrap, TEV cleavage, S75 size exclusion)
B12: envoplakin PRD R1990E (control mutation) (domain or fragment, human, UniProt Q92817 1822-2014, looked up)
chain: T1 sequence (looked up) with R169E
notes: envoplakin, human, plakin repeat domain, residues Asp1822-Ala2014, mutant R1990E; 15N-labelled for NMR; source: E. coli BL21(DE3), purified (HisTrap, TEV cleavage, S75 size exclusion)

Conditions in all cases: both partners purified
Experiment [1] concerns the target T1, wild-type human envoplakin plakin …. As to the kind of experiment: SPR; His-tagged vimentin^ROD (wild type or mutant) immobilised on nickel-coated chips, Biacore 3000; envoplakin PRD 0-100 μM flowed over; 150 mM NaCl, 10 mM Hepes, 3 mM EDTA, 0.005% Surfactant P20, pH 7.4. (Surface plasmon resonance follows binding to a sensor surface in real time, without labels.)

Experiment [2] deals with T2, envoplakin PRD K2002E (control mutation). The experiment is described as above.
The experiment “envoplakin PRD K1901E” addresses B7. Described as above.
For the experiment “envoplakin PRD R1914E”, the target named is B6. The experiment is described as above.
The target of experiment [3] is B11. Described as above.
For experiment [4], the target named is T3, full-length human vimentin (residues Met1-Glu466) (human, UniProt P08670 1-466).
T3 construct: vimentin, human, residues Met1-Glu466; Vector pET21a+; also called vimentin^FL; full-length vimentin
Kind of experiment: NMR titration; unlabelled full-length vimentin (10, 50, 100, 200 μM) added to 100 μM 15N-labelled wild-type or mutant envoplakin PRD; 1H,15N HSQC peak intensities; 20 mM Tris-Cl, pH 7, 1 mM DTT, no salt, 298 K.

Changes are numbered by the printed parent chain. Names and notes keep the numbering of the source.

T3 sequence (P08670 whole entry, the tested form may be a part): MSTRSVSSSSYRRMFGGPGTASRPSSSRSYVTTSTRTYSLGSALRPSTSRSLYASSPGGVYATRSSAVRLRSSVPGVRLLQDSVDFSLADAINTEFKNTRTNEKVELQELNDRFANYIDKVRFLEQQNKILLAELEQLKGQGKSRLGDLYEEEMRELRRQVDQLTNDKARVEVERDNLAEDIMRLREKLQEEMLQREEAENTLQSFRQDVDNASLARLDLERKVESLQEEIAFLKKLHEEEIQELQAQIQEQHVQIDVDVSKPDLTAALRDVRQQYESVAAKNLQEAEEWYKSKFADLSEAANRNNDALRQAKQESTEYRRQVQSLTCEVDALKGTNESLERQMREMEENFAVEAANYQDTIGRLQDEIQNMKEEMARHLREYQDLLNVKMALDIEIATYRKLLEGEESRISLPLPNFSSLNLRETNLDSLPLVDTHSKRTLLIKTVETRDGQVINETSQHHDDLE

The Kd is the free concentration of one partner at which half of the binding sites on the other are occupied at equilibrium, for simple one-to-one binding. Low readings indicate a tighter complex, high ones a looser complex. As for B1, the Kd in experiment [1] turned out to be 106 ± 45.6 µM.

Turning to B2, binding in experiment [1] was put at a Kd of 1500 ± 139 µM.

For the molecule B3, the Kd came to 19.1 ± 1.3 µM in experiment [1]; 14.5 ± 0.4 µM in experiment [2]; 69.3 ± 10.6 µM with envoplakin PRD K1901E; 132 ± 34.7 µM with envoplakin PRD R1914E; 26.5 ± 2 µM in experiment [3].

In the case of B4, the Kd in experiment [1] was found to be 48.4 ± 5.5 µM.

In the case of B5, the binding result in experiment [4] is “binds”.

Regarding B6, the binding result in experiment [4] was “binds”.

B7: the binding result in experiment [4] is “binds”.

With B8, the binding result in experiment [4] is listed as “binds”.

For the molecule B9, in experiment [4], the binding result was “binds”.

B10: in experiment [4], the binding result is reported as “binds”.

As to B11, the binding result in experiment [4] is reported as “binds”.

With B12, the binding result in experiment [4] is “binds”.

Source of the values: paper PMC4782060, “Mechanism of intermediate filament recognition by plakin repeat domains revealed by envoplakin targeting of vimentin” (Nature Communications, 2016).
